Results reported in PMC5721652, “Nanobodies targeting conserved epitopes on the major outer membrane protein of Campylobacter as potential tools for control of Campylobacter colonization” (Veterinary Research, 2017).

B1: Nb22, fluorescently labelled (VHH)
VHH: QVQLQESGGGLVQPGGSLRLSCAVSRTIFNFNNMGWYRQPPGKPRELVARITMNGRTDYADPVKGRFTISRDSAKNTLALQMNDLKGDDTAVYYCAARGAVRTGNLMPTDYWGQGTQVTVSS
notes: as the VHH of m3; probably the C-terminally His-tagged one; also called fluorescently labelled Nb22; source: E. coli, purified; labelled with Dylight 650 NHS Ester
B2: Nb84, fluorescently labelled (VHH)
VHH: QVQLQESGGGLVQAGGSLRLSCKASGTIISINNMGWYRRSPGKERDMVARIFSSGTINYTDSVKGRFTISRDNAKNTVYLEMNSLKPEDTAIYYCNARLTTTAMGTIPNSWGQGTQVTVSS
notes: as the VHH of m7; probably the C-terminally His-tagged one; also called fluorescently labelled Nb84; labelled Nb84; source: E. coli, purified; labelled with Dylight 650 NHS Ester
B3: Nb48, His-tagged (VHH)
VHH: QVQLQESGGGSVQAGESLRLACAASGSILSINIMRWYRQAPGKQRELVATIGRSGNTDLADFAKGRFTGSRDNGKNTVYLQMNNLKPEDTAVYYCNALLTTLSAQTGVYWGQGTQVTVSS
notes: One of the six nanobodies with less broad specificity; its name is printed only in the legend of Additional file 5; also called anti-Campylobacter nanobody; not shown: His-tag, C-terminal, kept
B4: Nb34, His-tagged (VHH)
VHH: QVQLQESGGGLVQAGGSLRLSCAASGRTSSSYAMGWFRQAPGKEREFVTAISWNGSKAYYSDSVKGRFTISRDNAKNTVYLQMNSLKPEDTAVYYCAQGAYRVVADPGEYDYWGQGTQVTVSS
notes: One of the six nanobodies with less broad specificity; also called anti-Campylobacter nanobody; not shown: His-tag, C-terminal, kept
B5: Nb45, His-tagged (VHH)
VHH: QVQLQESGGGLVQAGGSLRLACVASSTIFSINNMAWYRQAPGKQRELVARITAGGNTNYADSVKGRFTISKDKGKNTVRLQMNSLKPEDTGVYYCKCGGCGTPYSLSEDYWGQGTQVTVSS
notes: as for B4
B6: Nb32, His-tagged (VHH)
VHH: QVQLQESGGGLVQAGDSLRLSCAASGGTFSNYVLGWFRQAPGKEREFVAAIRWSGERTYYADSVKGRFTISSDNAKYRQVTVYLEMNSLKPEDTAVYYCAARAPNYYSDSQPPVTLSEYKVWGQGTQVTVSS
notes: as for B4
B7: Nb15, His-tagged (VHH)
VHH: QVQLQESGGGLVQPGGSLRLSCAASGRTFRSYDMGWFRQAPGKEREFVAASAWSAGRTIYKNSVKGRFTISRDNTKDTMYLQMNDLKPEDTAVYFCAADRNPPPIYNEFYYYRASAYDYWGQGTQVTVSS
notes: as for B3
B8: Nb63, His-tagged (VHH)
VHH: QVQLQESGGGLVQPGGSLRLSCVASGSTFAINVMGWYRRAPGKQRELVATVTSGSTTYSRVRSSDTTYADSVKGRFTISRDNAKNMVYLQMNSLKPEDTAVYYCNARTRNTIATSDGMDYWGKGTQVTVSS
notes: as for B3
B9: Nb23, His-tagged (VHH)
VHH: QVQLQESGGGLVQPGGSLRLSCAASGTIDNFNGMGWYRQAPGKQREWLARITMNGRTIYAESVEGRFTISRDKVKNTLALQMNSLKPEDTAVYYCNARGVLTPRGIHDYWGQGTQVTVSS
notes: Cloned in pHen6C; one of the six nanobodies with broad specificity; also called anti-Campylobacter nanobody; not shown: His-tag, C-terminal, kept
B10: Nb24, His-tagged (VHH)
VHH: QVQLQESGGGLVQPGGSLRLSCAASGRTFSRFSDNYVMGWFRQAPGKEREVVGAIRWSVASTYYADFVKGRFTISRDSAMNTMYLQMNNLKPEDTAVYYCATKFSGPINGGQTSYNYWGQGTQVTVSS
notes: as for B9
B11: Nb49, His-tagged (VHH)
VHH: QVQLQESGGGLVQPGWSLRLSCAASSIFEINAMGWYRQPPGKQRERVATITDGFGTNYADSVKGRFTISRDNAKNTVYLQMNSLRPEDTAVYYCSAQRTVPYKMTYWGQGTQVTVSS
notes: as for B9
B12: Nb23, strep-tagged (VHH)
VHH: QVQLQESGGGLVQPGGSLRLSCAASGTIDNFNGMGWYRQAPGKQREWLARITMNGRTIYAESVEGRFTISRDKVKNTLALQMNSLKPEDTAVYYCNARGVLTPRGIHDYWGQGTQVTVSS
notes: as the VHH of m4; also called strep-tagged Nb23; source: E. coli, purified (StrepTrap HP); not shown: strep-tag, C-terminal, kept
B13: Nb5, strep-tagged (VHH)
VHH: QVQLQESGGGLVQAGGSLRLSCAASGTIISLNSMGWYRQAPGKQRELVAALTSGGTTNYADSVKGRFTISRVNAKNTVYLQMNSLKPEDTAVYYCNAKLITTAQGMVLASWGQGTQVTVSS
notes: as the VHH of m2; the printed oligo encodes the tag directly after the end of the nanobody; also called strep-tagged Nb5; source: E. coli, purified (StrepTrap HP); not shown: strep-tag, C-terminal, kept
B14: Nb24, strep-tagged (VHH)
VHH: QVQLQESGGGLVQPGGSLRLSCAASGRTFSRFSDNYVMGWFRQAPGKEREVVGAIRWSVASTYYADFVKGRFTISRDSAMNTMYLQMNNLKPEDTAVYYCATKFSGPINGGQTSYNYWGQGTQVTVSS
notes: as the VHH of m5; also called strep-tagged Nb24; source: E. coli, purified (StrepTrap HP); not shown: strep-tag, C-terminal, kept
B15: Nb48, strep-tagged (VHH)
VHH: QVQLQESGGGSVQAGESLRLACAASGSILSINIMRWYRQAPGKQRELVATIGRSGNTDLADFAKGRFTGSRDNGKNTVYLQMNNLKPEDTAVYYCNALLTTLSAQTGVYWGQGTQVTVSS
notes: as the VHH of m12; also called strep-tagged Nb48; source: E. coli, purified (StrepTrap HP); not shown: strep-tag, C-terminal, kept
B16: Nb34, strep-tagged (VHH)
VHH: QVQLQESGGGLVQAGGSLRLSCAASGRTSSSYAMGWFRQAPGKEREFVTAISWNGSKAYYSDSVKGRFTISRDNAKNTVYLQMNSLKPEDTAVYYCAQGAYRVVADPGEYDYWGQGTQVTVSS
notes: as the VHH of m10; also called strep-tagged Nb34; source: E. coli, purified (StrepTrap HP); not shown: strep-tag, C-terminal, kept
B17: Nb45, strep-tagged (VHH)
VHH: QVQLQESGGGLVQAGGSLRLACVASSTIFSINNMAWYRQAPGKQRELVARITAGGNTNYADSVKGRFTISKDKGKNTVRLQMNSLKPEDTGVYYCKCGGCGTPYSLSEDYWGQGTQVTVSS
notes: as the VHH of m11; also called strep-tagged Nb45; source: E. coli, purified (StrepTrap HP); not shown: strep-tag, C-terminal, kept
B18: Nb32, strep-tagged (VHH)
VHH: QVQLQESGGGLVQAGDSLRLSCAASGGTFSNYVLGWFRQAPGKEREFVAAIRWSGERTYYADSVKGRFTISSDNAKYRQVTVYLEMNSLKPEDTAVYYCAARAPNYYSDSQPPVTLSEYKVWGQGTQVTVSS
notes: as the VHH of m9; also called strep-tagged Nb32; source: E. coli, purified (StrepTrap HP); not shown: strep-tag, C-terminal, kept
B19: Nb49, strep-tagged (VHH)
VHH: QVQLQESGGGLVQPGWSLRLSCAASSIFEINAMGWYRQPPGKQRERVATITDGFGTNYADSVKGRFTISRDNAKNTVYLQMNSLRPEDTAVYYCSAQRTVPYKMTYWGQGTQVTVSS
notes: as the VHH of m6; also called strep-tagged Nb49; source: E. coli, purified (StrepTrap HP); not shown: strep-tag, C-terminal, kept
B20: Nb15, strep-tagged (VHH)
VHH: QVQLQESGGGLVQPGGSLRLSCAASGRTFRSYDMGWFRQAPGKEREFVAASAWSAGRTIYKNSVKGRFTISRDNTKDTMYLQMNDLKPEDTAVYFCAADRNPPPIYNEFYYYRASAYDYWGQGTQVTVSS
notes: as the VHH of m8; also called strep-tagged Nb15; source: E. coli, purified (StrepTrap HP); not shown: strep-tag, C-terminal, kept
B21: Nb63, strep-tagged (VHH)
VHH: QVQLQESGGGLVQPGGSLRLSCVASGSTFAINVMGWYRRAPGKQRELVATVTSGSTTYSRVRSSDTTYADSVKGRFTISRDNAKNMVYLQMNSLKPEDTAVYYCNARTRNTIATSDGMDYWGKGTQVTVSS
notes: as the VHH of m13; also called strep-tagged Nb63; source: E. coli, purified (StrepTrap HP); not shown: strep-tag, C-terminal, kept
B22: Nb5, His-tagged (VHH)
VHH: QVQLQESGGGLVQAGGSLRLSCAASGTIISLNSMGWYRQAPGKQRELVAALTSGGTTNYADSVKGRFTISRVNAKNTVYLQMNSLKPEDTAVYYCNAKLITTAQGMVLASWGQGTQVTVSS
notes: as for B9

biological target: T1, major outer membrane protein (MOMP) of Campylobacter jejuni KC40 (Campylobacter jejuni KC40 (stand-in: …, UniProt P80672, strain)); assay: MST; saturation: Dylight 650 labelled nanobody constant at 32 nM, twofold serial dilutions of MOMP from 0.3 nM to 5.0 µM; 20 mM sodium phosphate pH 7.6, 150 mM NaCl, 0.6% octyl-POE; details: both partners purified
T1 construct: major outer membrane protein (MOMP, porA) of C. jejuni strain KC40; the printed entry P80672 is that of strain NCTC 11168, to which the peptides of the pull-down matched; The legends call the purified protein a MOMP monomer; the introduction describes MOMP as a trimeric porin; Kept in 0.6% octyl-POE after purification; also called purified MOMP monomer; native MOMP; source: purified from C. …

Row | Binder | Kd
1 | B1 | 118 ± 48 nM
2 | B2 | 422 ± 159 nM

biological target: T1, major outer membrane protein (MOMP) of …; assay: ELISA; purified MOMP coated at 1 µg/mL; His-tagged nanobody at 50 µg/mL, or tenfold serial dilutions of His-tagged Nb84 (saturation binding); detected with anti-Histidine tag antibody; details: both partners purified

Row | Binder | binding result
3 | B3 | binds
4 | B4 | binds
5 | B5 | binds
6 | B6 | binds
7 | B7 | binds
8 | B8 | binds

biological target: T1, major outer membrane protein (MOMP) of …; assay: far-Western, overlay or dot blot; purified MOMP run on a non-denaturing gel, transferred to PVDF, incubated with 5 µg/mL His-tagged nanobody for 1 h at 4 °C, detected with anti-Histidine tag antibody; details: both partners purified

Row | Binder | binding result
9 | B9 | binds
10 | B10 | binds
11 | B11 | binds

biological target: T1, major outer membrane protein (MOMP) of …; assay: ELISA; competition: MOMP coated at 1 µg/mL; serial dilutions of strep-tagged nanobody and a constant 5 x 10^-2 µg/mL of His-tagged Nb84 added simultaneously; bound His-tagged Nb84 detected with anti-Histidine tag antibody; details: both partners purified

Row | Binder | binding result
12 | B12 | binds
13 | B13 | binds
14 | B14 | binds
15 | B15 | binds
16 | B16 | binds
17 | B17 | binds
18 | B18 | binds
19 | B19 | binds
20 | B20 | binds
21 | B21 | binds

biological target: T1, major outer membrane protein (MOMP) of …; assay: pull-down; His-tagged nanobody (20 µL of 1.0 mg/mL) mixed with 500 µL outer membrane proteins of C. jejuni KC40 (1.2 mg/mL), 2 h at 4 °C, captured overnight at 4 °C on Co2+-coated Dynabeads; eluted band cut from a silver-stained gel and identified by LC-MS/MS; details: one partner purified

Row | Binder | binding result
22 | B22 | binds
